Our source for the binding signal values is article PMC10681739, “High-throughput data and modeling reveal insights into the mechanisms of cooperative DNA-binding by transcription factor proteins”.

For this data set, the target named is RUNX1 (Homo sapiens, UniProt Q01196). Kind of data set: gcPBM; 2 nM RUNX1. The following applies: tags: N-terminal GST (pDEST15), kept (PMC6008103); label: surface-attached array probe.
Chain of RUNX1 (Q01196 whole entry): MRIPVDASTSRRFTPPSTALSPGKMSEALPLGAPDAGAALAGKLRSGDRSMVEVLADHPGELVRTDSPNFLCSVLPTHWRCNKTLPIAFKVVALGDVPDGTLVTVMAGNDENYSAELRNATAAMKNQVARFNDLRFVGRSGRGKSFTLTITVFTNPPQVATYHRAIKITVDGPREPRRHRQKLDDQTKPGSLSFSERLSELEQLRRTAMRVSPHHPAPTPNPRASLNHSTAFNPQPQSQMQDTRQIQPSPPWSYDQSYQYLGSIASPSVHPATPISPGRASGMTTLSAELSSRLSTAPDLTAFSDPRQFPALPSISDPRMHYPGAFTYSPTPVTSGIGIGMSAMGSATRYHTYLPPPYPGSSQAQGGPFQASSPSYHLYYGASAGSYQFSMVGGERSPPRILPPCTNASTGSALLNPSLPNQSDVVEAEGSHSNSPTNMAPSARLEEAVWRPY

B1: Table S3 C row 191 (dsDNA)
DNA 1: GATTGGTTCTCTAAGCTTCCGTCAGTTTACAATCCT
DNA 2: AGGATTGTAAACTGACGGAAGCTTAGAGAACCAATC
For B1, the binding signal is 775 PBM fluorescence, median of replicate spots.

B2: Table S3 C row 159 (dsDNA)
DNA 1: GTAAATACACTCATGTTTCCGCTCTCAGCCGTCAGT
DNA 2: ACTGACGGCTGAGAGCGGAAACATGAGTGTATTTAC
For the molecule B2, the binding signal is 801 PBM fluorescence, median of replicate spots.

B3: Table S3 C row 19 (dsDNA)
DNA 1: TCCAGACCTCCCCGTCTTCCGGCTGCCCTGAACGTC
DNA 2: GACGTTCAGGGCAGCCGGAAGACGGGGAGGTCTGGA
Turning to B3, the binding signal was 812 PBM fluorescence, median of replicate spots.

B4: Table S3 C row 152 (dsDNA)
DNA 1: TTTCCCCGACCCCGCCGGAAGACCAGGCCGGCGCGG
DNA 2: CCGCGCCGGCCTGGTCTTCCGGCGGGGTCGGGGAAA
Take B4: the binding signal is 787 PBM fluorescence, median of replicate spots.

B5: Table S3 C row 17 (dsDNA)
DNA 1: CGCGGGTCATGTGACCGGAAGGGCTCCTCACGGACG
DNA 2: CGTCCGTGAGGAGCCCTTCCGGTCACATGACCCGCG
In the case of B5, the binding signal is 798 PBM fluorescence, median of replicate spots.

B6: Table S3 C row 95 (dsDNA)
DNA 1: CGCAGGGTCACGTGACATCCTGCCTCGCCCCGCCCA
DNA 2: TGGGCGGGGCGAGGCAGGATGTCACGTGACCCTGCG
Take B6: the binding signal was 783 PBM fluorescence, median of replicate spots.

B7: Table S3 C row 55 (dsDNA)
DNA 1: GGGTTCATGTTTAGCAGGAAGTTGAAATGACTCACC
DNA 2: GGTGAGTCATTTCAACTTCCTGCTAAACATGAACCC
Turning to B7, the binding signal is 803 PBM fluorescence, median of replicate spots.

B8: Table S3 C row 34 (dsDNA)
DNA 1: TTACGGCAAGCCTCACTTCCGGTCTGAACATTACGG
DNA 2: CCGTAATGTTCAGACCGGAAGTGAGGCTTGCCGTAA
Turning to B8, the binding signal was 808 PBM fluorescence, median of replicate spots.

B9: Table S3 C row 14 (dsDNA)
DNA 1: TCCTGCCGACGTGTTCTTCCGGTGGCGGAGCGGCGG
DNA 2: CCGCCGCTCCGCCACCGGAAGAACACGTCGGCAGGA
B9: the binding signal is 791 PBM fluorescence, median of replicate spots.

B10: Table S3 C row 171 (dsDNA)
DNA 1: AGGAGACAAGCGCCACTTCCGGCAGCGAAGTCACTT
DNA 2: AAGTGACTTCGCTGCCGGAAGTGGCGCTTGTCTCCT
In the case of B10, the binding signal was 814 PBM fluorescence, median of replicate spots.

B11: Table S3 C row 59 (dsDNA)
DNA 1: TCTTACGGGCGGGGCCGGAAGAGGGAGTCGCGCTGC
DNA 2: GCAGCGCGACTCCCTCTTCCGGCCCCGCCCGTAAGA
As for B11, the binding signal was 793 PBM fluorescence, median of replicate spots.

B12: Table S3 C row 131 (dsDNA)
DNA 1: AGTTGGTAGCGCCAACGGAAGCCCATGCCAAACTTG
DNA 2: CAAGTTTGGCATGGGCTTCCGTTGGCGCTACCAACT
Regarding B12, the binding signal was 778 PBM fluorescence, median of replicate spots.

B13: Table S3 C row 2 (dsDNA)
DNA 1: TGGACCTAGGGCAGACGGAAGTTTTGGGAGGGCCGG
DNA 2: CCGGCCCTCCCAAAACTTCCGTCTGCCCTAGGTCCA
B13: the binding signal is 810 PBM fluorescence, median of replicate spots.

B14: Table S3 C row 86 (dsDNA)
DNA 1: CGCGTGATGGACGCCCGGAAGCCGGCACAACAAATG
DNA 2: CATTTGTTGTGCCGGCTTCCGGGCGTCCATCACGCG
Take B14: the binding signal was 777 PBM fluorescence, median of replicate spots.

B15: Table S3 C row 40 (dsDNA)
DNA 1: GCACCTGTATTGCCGTTTCCGGTTCGCCTTCGGAGC
DNA 2: GCTCCGAAGGCGAACCGGAAACGGCAATACAGGTGC
Take B15: the binding signal was 799 PBM fluorescence, median of replicate spots.

B16: Table S3 C row 196 (dsDNA)
DNA 1: GGGGTTCAGTGCCTCTTTCCGTTGGAGAGAACCTCT
DNA 2: AGAGGTTCTCTCCAACGGAAAGAGGCACTGAACCCC
B16: the binding signal was 810 PBM fluorescence, median of replicate spots.

B17: Table S3 C row 80 (dsDNA)
DNA 1: CAAAAGGGCTGCCAGTTTCCGCCCCTTCTAGCGAGC
DNA 2: GCTCGCTAGAAGGGGCGGAAACTGGCAGCCCTTTTG
For the molecule B17, the binding signal was 794 PBM fluorescence, median of replicate spots.

B18: Table S3 C row 4 (dsDNA)
DNA 1: CTCTCAACCCAGCCGCTTCCTGGTTGTTCGTCGCAA
DNA 2: TTGCGACGAACAACCAGGAAGCGGCTGGGTTGAGAG
As for B18, the binding signal was 782 PBM fluorescence, median of replicate spots.

B19: Table S3 C row 169 (dsDNA)
DNA 1: CGCGGGCCCGGCCAGCGGAAGCCCCTGCGCCCGCGC
DNA 2: GCGCGGGCGCAGGGGCTTCCGCTGGCCGGGCCCGCG
Turning to B19, the binding signal is 779 PBM fluorescence, median of replicate spots.

B20: Table S3 C row 78 (dsDNA)
DNA 1: ATTCCAATGGCAGGCAGGAAATCTTGTAGTAGGTGA
DNA 2: TCACCTACTACAAGATTTCCTGCCTGCCATTGGAAT
With B20, the binding signal is 802 PBM fluorescence, median of replicate spots.

B21: Table S3 C row 38 (dsDNA)
DNA 1: AGTGAAACATCAGAGCTTCCTGTTACATCACTCTGA
DNA 2: TCAGAGTGATGTAACAGGAAGCTCTGATGTTTCACT
Consider B21, for which the binding signal is 789 PBM fluorescence, median of replicate spots.

B22: Table S3 C row 195 (dsDNA)
DNA 1: TCGCGCTGGACGAAGCGGAAGAAGATGGCGCTCACC
DNA 2: GGTGAGCGCCATCTTCTTCCGCTTCGTCCAGCGCGA
As for B22, the binding signal was 794 PBM fluorescence, median of replicate spots.

B23: Table S3 C row 84 (dsDNA)
DNA 1: GCTTCTGGGAGAAGCCGGAAGAGACCTGACCCTGAA
DNA 2: TTCAGGGTCAGGTCTCTTCCGGCTTCTCCCAGAAGC
Consider B23, for which the binding signal is 782 PBM fluorescence, median of replicate spots.

B24: Table S3 C row 99 (dsDNA)
DNA 1: CGCTCCAGGGCCTCCCGGATGGCCTAGTCGGGCCCG
DNA 2: CGGGCCCGACTAGGCCATCCGGGAGGCCCTGGAGCG
B24: the binding signal was 786 PBM fluorescence, median of replicate spots.

B25: Table S3 C row 45 (dsDNA)
DNA 1: CCGCTGGGGCAGGAGTTTCCGGCGGACTCGGCTAGG
DNA 2: CCTAGCCGAGTCCGCCGGAAACTCCTGCCCCAGCGG
B25: the binding signal is 802 PBM fluorescence, median of replicate spots.

B26: Table S3 C row 97 (dsDNA)
DNA 1: CACCTGCTACTCAAAGTTCCGCCTCTCTTCAGCGAG
DNA 2: CTCGCTGAAGAGAGGCGGAACTTTGAGTAGCAGGTG
On to B26, for which the binding signal is 779 PBM fluorescence, median of replicate spots.

B27: Table S3 C row 134 (dsDNA)
DNA 1: GGGCAGAAGCACACAAGGAAGTGTTTCTGGGACAGA
DNA 2: TCTGTCCCAGAAACACTTCCTTGTGTGCTTCTGCCC
Take B27: the binding signal is 813 PBM fluorescence, median of replicate spots.

B28: Table S3 C row 155 (dsDNA)
DNA 1: TCCAGGCACTATTTTCGGAAGCAGAGACACAGTGCC
DNA 2: GGCACTGTGTCTCTGCTTCCGAAAATAGTGCCTGGA
For the molecule B28, the binding signal is 791 PBM fluorescence, median of replicate spots.

B29: Table S3 C row 139 (dsDNA)
DNA 1: TAAATGGAAAGCATACATCCTGTTTTTTTGCTGTAG
DNA 2: CTACAGCAAAAAAACAGGATGTATGCTTTCCATTTA
Turning to B29, the binding signal is 802 PBM fluorescence, median of replicate spots.

B30: Table S3 C row 18 (dsDNA)
DNA 1: GCTGTGATTGCCTCACTTCCTGTGTCATGTGACGCT
DNA 2: AGCGTCACATGACACAGGAAGTGAGGCAATCACAGC
With B30, the binding signal was 805 PBM fluorescence, median of replicate spots.

B31: Table S3 C row 91 (dsDNA)
DNA 1: CACATACTACTACAACTTCCGGCAGGCTCCGCGCCC
DNA 2: GGGCGCGGAGCCTGCCGGAAGTTGTAGTAGTATGTG
In the case of B31, the binding signal was 795 PBM fluorescence, median of replicate spots.

B32: Table S3 C row 56 (dsDNA)
DNA 1: CGCTCAGAGCTACGGCGGAAATGCCGCTCTTTTAAC
DNA 2: GTTAAAAGAGCGGCATTTCCGCCGTAGCTCTGAGCG
As for B32, the binding signal is 786 PBM fluorescence, median of replicate spots.

B33: Table S3 C row 109 (dsDNA)
DNA 1: GCAGCACGCAGCAACCGGAAGTCAATGGACGAAGAC
DNA 2: GTCTTCGTCCATTGACTTCCGGTTGCTGCGTGCTGC
Consider B33, for which the binding signal was 792 PBM fluorescence, median of replicate spots.

B34: Table S3 C row 92 (dsDNA)
DNA 1: TCCCTAGTTTCTGCCCGGAAGATGGAGCCGCCATCT
DNA 2: AGATGGCGGCTCCATCTTCCGGGCAGAAACTAGGGA
With B34, the binding signal is 788 PBM fluorescence, median of replicate spots.

B35: Table S3 C row 85 (dsDNA)
DNA 1: CAGTCTGGCCCTCCACTTCCTGTTTTTATAAATGAA
DNA 2: TTCATTTATAAAAACAGGAAGTGGAGGGCCAGACTG
On to B35, for which the binding signal was 810 PBM fluorescence, median of replicate spots.

B36: Table S3 C row 63 (dsDNA)
DNA 1: GCACTGAGGCTGACCCGGAAGTTTAAATTACGCTCC
DNA 2: GGAGCGTAATTTAAACTTCCGGGTCAGCCTCAGTGC
As to B36, the binding signal was 812 PBM fluorescence, median of replicate spots.

B37: Table S3 C row 28 (dsDNA)
DNA 1: GTTCCTAGTCCGCTCCGGAAATGCAACTGCGTACGG
DNA 2: CCGTACGCAGTTGCATTTCCGGAGCGGACTAGGAAC
In the case of B37, the binding signal was 793 PBM fluorescence, median of replicate spots.

B38: Table S3 C row 66 (dsDNA)
DNA 1: CCAGGACAGCACCTATTTCCTGCTGGTGTAACAGAG
DNA 2: CTCTGTTACACCAGCAGGAAATAGGTGCTGTCCTGG
In the case of B38, the binding signal is 778 PBM fluorescence, median of replicate spots.

B39: Table S3 C row 168 (dsDNA)
DNA 1: CAGAAGTCCCGACCCCATCCTGCCACGCCTCAGCGT
DNA 2: ACGCTGAGGCGTGGCAGGATGGGGTCGGGACTTCTG
On to B39, for which the binding signal was 810 PBM fluorescence, median of replicate spots.

B40: Table S3 C row 190 (dsDNA)
DNA 1: CGCTCGTAAGTGCTCCGGATGGAATCTGGTGCAGGG
DNA 2: CCCTGCACCAGATTCCATCCGGAGCACTTACGAGCG
B40: the binding signal was 780 PBM fluorescence, median of replicate spots.

B41: Table S3 C row 67 (dsDNA)
DNA 1: AAAAAAAAAAAAAAAGTTCCGGCCGGGCTGCGCCTC
DNA 2: GAGGCGCAGCCCGGCCGGAACTTTTTTTTTTTTTTT
With B41, the binding signal is 810 PBM fluorescence, median of replicate spots.

B42: Table S3 C row 51 (dsDNA)
DNA 1: CACAGAGACACCAACAGGAAGAGACCAGAGAGCCAA
DNA 2: TTGGCTCTCTGGTCTCTTCCTGTTGGTGTCTCTGTG
As to B42, the binding signal was 807 PBM fluorescence, median of replicate spots.
